One molecule from article PMC10957154 can be followed below.

In the assay the target is T1, DJ-1 (mouse (endogenous in mouse frontal cortex)), Q99LX0.
T1 chain: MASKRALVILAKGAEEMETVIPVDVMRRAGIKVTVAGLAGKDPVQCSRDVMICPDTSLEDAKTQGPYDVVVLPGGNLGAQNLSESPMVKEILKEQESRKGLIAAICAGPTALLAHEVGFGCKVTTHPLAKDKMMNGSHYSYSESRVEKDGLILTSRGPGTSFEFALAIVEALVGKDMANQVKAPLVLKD
The experiment in a line: cross-linking. The settings on record: remark: other sources report otherwise.

B1: DJ-1, Q99LX0 1-189 (natural protein)
chain: MASKRALVILAKGAEEMETVIPVDVMRRAGIKVTVAGLAGKDPVQCSRDVMICPDTSLEDAKTQGPYDVVVLPGGNLGAQNLSESPMVKEILKEQESRKGLIAAICAGPTALLAHEVGFGCKVTTHPLAKDKMMNGSHYSYSESRVEKDGLILTSRGPGTSFEFALAIVEALVGKDMANQVKAPLVLKD
In the case of B1, the stoichiometry N (in general, the number of molecules, sites or subunits per partner or assembly) worked out at 2.
